Substrate: CC(=O)O
Experiment: cells, lysate or membranes
Details: pH 6.0, 30 °C, labelled compound, pH 6.0

Protein | Km [mM]
CjJen5 (Williopsis jadinii) (protein) MDWDAFDFFVMSLNVSKLATDLDRSVKDISWGITVVLMFRSVGAIVFGYFGDRYGRKWPLIVNLFCLVVIQIGTGFINTYAEFIGVRALFGVFMGSMYGLASATAMEGLPTSARSFLSGVYQQGYALGYLLGVIFQRAITDTTTHTWRSLFWFSAGPPKLKPFLQQQLHMKNKNTSFSEDACKVFKEQWLKMIYLVLLMAGMNFMSHGSQDLYPTMLTVQLNYSPNRSTVTNSVANLGALAGGMTFGHFSGFLGRRSGIIICSILGACMIYPWAFVRNSGINAGVFFLQFFVQGAWGVIPIHLSELSPPEFRAFVVGVSYQLGNLASSASSTIESTLGERYPLYDDNGDVIEGVYDYARVMAIFVGAVFCYVILIAFIGPENRHSNINYVLSKEEEEELIQQRMIVTNNGSEQDSNADDEEKLVTAHTEKIEPK | 5.18 ± 1.51
CjAto1 (Williopsis jadinii) (protein) MSDKESQMLNTSQSQERAIDAGCDDLQEDVEHQQVPVSKVFTSGERDEYVMIGRTKVLRSELWNAFGGDLQPGIHAPPPRRFANPAPLGLCGFALTTFVLSMSNARAMGITVANVAVGPAFFYGGIIQLLSGMWEISLDNTFGGTVLSSYGGFWLSWAAIQIDWFGIQRAYDDPIMLNNGLGFFLLGWVIFTLMVLICTVKSTVAFFSLFFFLEMTFLLLTIGEFTRSVGVTRAAGVFGVITSFLGWYNALAGFATRENSYFVATAVPLPGAKRAQVHS | 12.18 ± 4.67
CjAto3 (Williopsis jadinii) (protein) MAANVDLEKQATPNSSNDNHTFSPEDEAHPVSKVYTSGENDQYIMIGRTKVLRSELWNAFGGDLQPGIHATPPRRFANPAPLGLCAFALTTFVLSMVNARAMGITTPNIVVGLALFYGGFVQLLAGMWEIALDNTFGGTALSSYGGFWMSYAAIQIDWFGIKSAYTDPIELANAVSFFLLGWTIFTFMILLCTVKSTVSFFSLFFFLEITFLLLTIGDFTRRVGVTRAGGVFGVITAFIAWYNAFAGIATKENSYITIKAWPLPGAKRA | 9.17 ± 4.70
CjAto4 (Williopsis jadinii) (protein) MSDKENQTLNNPQTQDYASTGGKPDVEHGEIPVSKVYTTGDQDEYLMIGHQKVLRSELWTAFGGDLQPGVHAPPPQRLANPAPLGLCGFALTTFVLSMANARAMGVTIPNAAVGAACFYGGLVQLLAGMWEISLDNTFGGTALSSYGGFWMSWAAIQIDWFGIKKAYDDPIMLANAVGFFLLGWTIFTFMLVLCTVKSTVAFFSLFFFLDITFLLLTIGEFTRKTGVSRAGGVFGVITSFIAWYNAFAGLATKENSYVVAIPLPLPGAKRS | 1.28 ± 0.38
CjJen1 (Williopsis jadinii) (protein) MHKLEESVTRQDSIHEDPDDVVIEDEQEIILNWPNIVEYSKTRFTSLTHLHLHAVGDLNPLPSLREMSWNNWNFFFMGFVAWFSASFDFFLTAVSGTYIAQSLDVSTADITWGLSAVLMVRSAGAVIFGLWTDNYSRKWPFITTAAMFCALQIGTGFCKTYQQFMAVRAISGIAMGGTYATAAATSMDDAPLKARSFLSGLFFSAYAFGMIFAAIFWRAFESTKHSWKALFWFSSCFPFILICWRLVFPETRYFTRVLKARELIKQDQIEAGVYVKPTLKTKWGSVKAMLKKDWLLFTYLVILLAGTNYLTHASQDMYPTMLRSQLEWSLDAQTVAIVVVNLGAICGGLIAGTFMEVTGRRLAILICCVIGGCFVYPAYMMHNNSAVLGGGFFLFFAVIGVWGVLPIHLSELSPPDARALVSGLAYQLGNLASSASSTIETRLAKLWPLEWDAEGNPIKYDYAKTIACFTGAVFIYVFITTFIGPEKFHRDLSSPLLKTYIEKVIEIEEGRDPEAKFVTSSGDTSEQASYGKATHEEIELDCYPQEKK | 2.15 ± 0.60

From article PMC8779868, “Uncovering Novel Plasma Membrane Carboxylate Transporters in the Yeast Cyberlindnera jadinii” (Journal of Fungi, 2022)
